Measured values published in US20070111944A1 (published 2007).

Key:
[1] = target: chimeric receptor consisting of the extracellular and transmembrane domain of VEGFR1 fused to the cytoplasmic domain of gp130 (UniProt P17948); assay: cell-based or functional assay
[2] = target: T1, VEGF-R2/Fc (human, UniProt P35968 20-764); assay: SPR (Biacore 2000), VEGF-B167 immobilised, receptor-Fc injected
T1 construct: Bought from R&D Systems; also called VEGF receptor 2; not shown: human immunoglobulin Fc domain
T1 sequence (P35968 20-764 limits assumed): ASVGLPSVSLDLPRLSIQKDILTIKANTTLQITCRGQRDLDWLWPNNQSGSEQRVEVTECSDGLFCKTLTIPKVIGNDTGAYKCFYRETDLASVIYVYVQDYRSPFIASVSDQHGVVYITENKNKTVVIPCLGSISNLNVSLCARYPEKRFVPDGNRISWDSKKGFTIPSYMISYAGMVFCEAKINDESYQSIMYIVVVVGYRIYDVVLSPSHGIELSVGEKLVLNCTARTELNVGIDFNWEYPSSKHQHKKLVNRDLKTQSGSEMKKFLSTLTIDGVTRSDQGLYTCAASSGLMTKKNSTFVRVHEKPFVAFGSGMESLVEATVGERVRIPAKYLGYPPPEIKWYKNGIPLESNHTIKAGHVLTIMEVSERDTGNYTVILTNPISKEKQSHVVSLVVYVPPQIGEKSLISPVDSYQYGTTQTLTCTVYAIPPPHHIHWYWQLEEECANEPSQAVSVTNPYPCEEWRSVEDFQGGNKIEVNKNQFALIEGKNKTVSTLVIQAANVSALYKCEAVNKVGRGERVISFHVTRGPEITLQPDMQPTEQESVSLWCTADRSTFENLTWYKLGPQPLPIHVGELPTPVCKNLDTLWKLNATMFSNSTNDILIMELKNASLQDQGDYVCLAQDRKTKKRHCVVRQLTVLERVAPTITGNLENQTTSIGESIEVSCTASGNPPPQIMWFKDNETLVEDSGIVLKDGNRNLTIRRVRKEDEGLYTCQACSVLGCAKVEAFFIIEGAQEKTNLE
Method: For control purposes binding of the receptors to VEGF-A₁₆₅ was also monitored. Both VEGF-B₁₆₇ and VEGF-A₁₆₅ were individually immobilised to a sensorchip using NHS/EDC chemistry according to the manufacturer's instructions. Briefly, 35 μl of NHS and EDC was injected onto the sensorchip at a flow rate of 5 μl/min to activate the sensor surface and enable covalent coupling of either VEGF-A₁₆₅ or VEGF-B₁₆₇. […] Post coupling, diaminoethane (50 mM, pH 9.0) was used to block any unbound activated sites on the sensor surface. Concentrated dimeric VEGF-B₁₆₇ (200 μg/ml) was diluted (1:10) in 20 mM sodium acetate and immobilized onto a separate channel on the sensorchip. Post coupling, diaminoethane (50 mM, pH 9.0) was used to block any unbound activated sites on the sensor surface.
At the end of each run, the surface of the sensorchip was regenerated using 2 cycles of phosphoric acid (0.1 M, 30 μl) at a flow of 50 μl/min. […] Both were diluted into 0.1% w/v BSA in PBS as a stock solution (50 μg/ml, storage −20° C.).

[3] = target: T2, VEGF-R1/Fc (human, UniProt P17948-2 27-758, limits assumed); assay: competition ELISA on captured VEGF-R1/Fc; competitor VEGF-A165 at 10 ng/ml, detected with biotinylated anti-VEGF-A165; VEGF-A165 at 10 ng/ml; VEGF-R1/Fc captured on plate
T2 construct: Bought from R&D Systems; also called VEGF receptor 1; Flt-1; not shown: human immunoglobulin Fc domain
T2 sequence (P17948 27-758 limits assumed, form in doubt): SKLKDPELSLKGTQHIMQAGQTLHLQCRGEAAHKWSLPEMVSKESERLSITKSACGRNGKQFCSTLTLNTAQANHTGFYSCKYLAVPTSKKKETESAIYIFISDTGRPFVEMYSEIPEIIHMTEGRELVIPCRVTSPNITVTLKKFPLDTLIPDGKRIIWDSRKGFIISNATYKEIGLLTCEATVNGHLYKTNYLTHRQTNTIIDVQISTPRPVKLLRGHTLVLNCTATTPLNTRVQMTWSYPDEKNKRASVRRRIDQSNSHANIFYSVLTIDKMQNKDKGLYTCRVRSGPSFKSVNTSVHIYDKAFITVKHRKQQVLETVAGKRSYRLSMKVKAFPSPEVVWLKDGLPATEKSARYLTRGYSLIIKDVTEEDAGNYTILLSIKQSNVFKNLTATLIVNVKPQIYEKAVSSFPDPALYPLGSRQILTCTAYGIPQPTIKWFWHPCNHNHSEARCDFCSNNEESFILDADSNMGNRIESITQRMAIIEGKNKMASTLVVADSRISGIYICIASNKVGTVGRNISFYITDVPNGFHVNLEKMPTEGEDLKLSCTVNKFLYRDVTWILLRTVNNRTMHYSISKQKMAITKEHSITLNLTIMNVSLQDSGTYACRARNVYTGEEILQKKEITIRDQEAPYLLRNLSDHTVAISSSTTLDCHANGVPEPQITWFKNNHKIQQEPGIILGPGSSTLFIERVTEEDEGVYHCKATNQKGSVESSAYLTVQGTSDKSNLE
Method: 1. […] 2. […] 6. […] 7. Biotinylated anti-VEGF-A₁₆₅ (10 ng/ml in Buffer 20, 100 μl) was added and incubated for 1 hr. […] 8. […] 9. […] 10. […] 11.

chimeric receptor consisting of the extracellular and transmembrane domain of VEGFR1 fused to the cytoplasmic domain of gp130, sequence (P17948 other isoform, or with tags, fused parts or gaps mutant limits assumed): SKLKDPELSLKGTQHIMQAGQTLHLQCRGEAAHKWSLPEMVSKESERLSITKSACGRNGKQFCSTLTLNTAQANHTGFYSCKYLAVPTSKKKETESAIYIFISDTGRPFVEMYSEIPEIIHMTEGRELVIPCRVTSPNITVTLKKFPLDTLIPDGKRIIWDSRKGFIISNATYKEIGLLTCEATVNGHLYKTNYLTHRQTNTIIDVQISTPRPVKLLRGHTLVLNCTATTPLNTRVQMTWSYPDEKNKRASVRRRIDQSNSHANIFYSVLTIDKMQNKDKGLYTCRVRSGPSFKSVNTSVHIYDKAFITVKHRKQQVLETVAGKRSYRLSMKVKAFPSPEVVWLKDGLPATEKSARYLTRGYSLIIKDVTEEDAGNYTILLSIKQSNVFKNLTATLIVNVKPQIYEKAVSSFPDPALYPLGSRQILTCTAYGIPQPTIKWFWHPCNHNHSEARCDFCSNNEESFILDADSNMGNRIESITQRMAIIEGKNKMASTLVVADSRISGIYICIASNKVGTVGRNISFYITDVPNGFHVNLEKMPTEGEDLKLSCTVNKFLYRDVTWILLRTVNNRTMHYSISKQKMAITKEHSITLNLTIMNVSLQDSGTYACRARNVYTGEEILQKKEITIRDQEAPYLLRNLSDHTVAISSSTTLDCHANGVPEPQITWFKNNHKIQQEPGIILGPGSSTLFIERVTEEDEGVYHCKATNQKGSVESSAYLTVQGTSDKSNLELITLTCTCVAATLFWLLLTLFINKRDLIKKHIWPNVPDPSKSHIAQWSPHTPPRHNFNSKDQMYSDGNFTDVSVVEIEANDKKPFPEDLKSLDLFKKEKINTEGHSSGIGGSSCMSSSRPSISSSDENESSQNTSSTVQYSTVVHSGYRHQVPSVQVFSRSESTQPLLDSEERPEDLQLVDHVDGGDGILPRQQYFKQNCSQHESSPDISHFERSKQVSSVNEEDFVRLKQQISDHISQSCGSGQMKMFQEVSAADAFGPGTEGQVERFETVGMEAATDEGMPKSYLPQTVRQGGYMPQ

| luciferase reporter activity (ED50) [1] [µg/mL] | IC50 [3] [µg/mL] | Molecule | binding result [2] |
| --- | --- | --- | --- |
| 0.01 to 0.05 |  | VEGF-A (from UniProt P15692 27-191) (ligand) |  |
|  | ~0.02 | refolded dimeric VEGF-B167 (ligand, also called purified dimeric VEGF-B167) APVSQPDAPGHQRKVVSWIDVYTRATCQPREVVVPLTVELMGTVAKQLVPSCVTVQRCGGCCPDDGLECVPTGQHQVRMQILMIRYPSSQLGEMSLEEHSQCECRPKKKDSAVKPDSPRPLCPRCTQHHQRPDPRTCRCRCRRRSFLRCQGRGLELNPDTCRCRKLRR | no binding (tested: 50 µg/ml stock diluted 1:10) |
